Assay results taken from paper PMC3183026 (Molecular Biology of the Cell, 2011).

Target: DCC (endogenous, embryonic rat cortical neurons) (rat (endogenous in E18 cortical neurons), UniProt Q63155 26-1445)
Experiment: co-IP

Sequence of DCC (endogenous, embryonic rat cortical neurons) (Q63155 26-1445): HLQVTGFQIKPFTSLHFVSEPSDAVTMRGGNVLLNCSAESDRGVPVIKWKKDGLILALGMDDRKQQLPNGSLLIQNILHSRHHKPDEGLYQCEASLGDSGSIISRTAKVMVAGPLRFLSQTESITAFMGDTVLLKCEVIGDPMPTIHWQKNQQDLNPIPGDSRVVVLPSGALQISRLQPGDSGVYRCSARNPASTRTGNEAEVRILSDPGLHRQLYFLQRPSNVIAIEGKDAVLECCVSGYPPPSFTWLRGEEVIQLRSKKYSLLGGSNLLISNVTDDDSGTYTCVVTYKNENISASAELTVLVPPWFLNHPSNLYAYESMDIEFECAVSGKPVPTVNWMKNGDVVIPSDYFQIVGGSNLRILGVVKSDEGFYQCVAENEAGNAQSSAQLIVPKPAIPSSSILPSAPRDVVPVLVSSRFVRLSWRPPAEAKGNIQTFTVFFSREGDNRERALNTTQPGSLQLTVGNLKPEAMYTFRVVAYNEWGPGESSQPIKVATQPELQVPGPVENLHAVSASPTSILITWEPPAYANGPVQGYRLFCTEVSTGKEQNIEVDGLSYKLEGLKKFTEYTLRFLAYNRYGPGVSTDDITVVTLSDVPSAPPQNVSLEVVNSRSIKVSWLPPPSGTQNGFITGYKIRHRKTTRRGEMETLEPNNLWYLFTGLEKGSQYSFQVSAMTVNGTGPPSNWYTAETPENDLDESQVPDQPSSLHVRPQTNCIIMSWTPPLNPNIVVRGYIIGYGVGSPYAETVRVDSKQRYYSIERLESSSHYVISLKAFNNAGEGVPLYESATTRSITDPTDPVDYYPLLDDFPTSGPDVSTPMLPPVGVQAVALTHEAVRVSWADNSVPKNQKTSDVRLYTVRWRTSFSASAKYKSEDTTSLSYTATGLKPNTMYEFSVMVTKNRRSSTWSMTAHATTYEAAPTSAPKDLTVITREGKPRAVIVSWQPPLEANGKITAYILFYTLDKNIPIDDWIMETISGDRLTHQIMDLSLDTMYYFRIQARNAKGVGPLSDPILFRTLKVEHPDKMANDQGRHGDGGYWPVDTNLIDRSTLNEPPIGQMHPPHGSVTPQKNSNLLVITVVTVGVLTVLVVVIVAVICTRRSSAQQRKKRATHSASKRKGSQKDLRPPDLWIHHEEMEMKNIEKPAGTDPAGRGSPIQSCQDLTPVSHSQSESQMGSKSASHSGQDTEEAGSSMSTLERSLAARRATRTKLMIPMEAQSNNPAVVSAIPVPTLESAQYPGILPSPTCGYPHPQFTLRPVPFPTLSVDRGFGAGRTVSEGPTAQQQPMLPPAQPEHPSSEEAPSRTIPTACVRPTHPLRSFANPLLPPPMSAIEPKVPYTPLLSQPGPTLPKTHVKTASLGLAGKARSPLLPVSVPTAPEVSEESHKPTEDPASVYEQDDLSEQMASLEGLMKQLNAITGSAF

B1: ezrin (endogenous, embryonic rat cortical neurons) (natural protein)
chain: MPKPINVRVTTMDAELEFAIQPNTTGKQLFDQVVKTIGLREVWYFGLQYVDNKGFPTWLKLDKKVSAQEVRKENPVQFKFRAKFYPEDVADELIQDITQKLFFLQVKEGILSDEIYCPPETAVLLGSYAVQAKFGDYNKEMHKSGYLSSERLIPQRVMDQHKLSRDQWEDRIQVWHAEHRGMLKDSAMLEYLKIAQDLEMYGINYFEIKNKKGTDLWLGVDALGLNIYEKDDKLTPKIGFPWSEIRNISFNDKKFVIKPIDKKAPDFVFYAPRLRINKRILQLCMGNHELYMRRRKPDTIEVQQMKAQAREEKHQKQLERQQLETEKKRRETVEREKEQMLREKEELMLRLQDFEQKTKRAEKELSEQIEKALQLEEERRRAQEEAERLEADRMAALRAKEELERQAQDQIKSQEQLAAELAEYTAKIALLEEARRRKEDEVEEWQHRAKEAQDDLVKTKEELHLVMTAPPPPPPPVYEPVNYHVQEGLQDEGAEPMGYSAELSSEGILDDRNEEKRITEAEKNERVQRQLLTLSNELSQARDENKRTHNDIIHNENMRQGRDKYKTLRQIRQGNTKQRIDEFEAM
- fold increase relative to unstimulated neurons: 6 fold
